For assay [1], the target named is T1, cynomolgus monkey transferrin receptor 1 (TfR1), full length, expressed on cells (cynomolgus monkey, UniProt Q5RDH6 1-760 (Pongo abelii entry)).
T1 construct: also called cyno TfR1; cyTfR
Kind of assay: FACS on Ba/F3 cells, Fab supernatant.

In assay [2] the target is T2, human transferrin receptor 1 (TfR1), full length, expressed on cells (human, UniProt P02786 1-760).
T2 construct: also called human TfR1; huTfR
In words: FACS on Ba/F3 cells, Fab supernatant.

In assay [3] the target is T1, cynomolgus monkey transferrin receptor …. Kind of assay: FACS on Ba/F3 cells, Fab supernatant. The source holds these as a separate data set.
The target in assay [4] is T2, human transferrin receptor 1 (TfR1), …. Kind of assay: FACS on Ba/F3 cells, Fab supernatant. This is another data set of the same source.
Assay [5] addresses T1, cynomolgus monkey transferrin receptor …. Kind of assay: FACS on Ba/F3 cells, Fab supernatant. The source holds these as a separate data set.
Assay [6] addresses T2, human transferrin receptor 1 (TfR1), …. In words: FACS on Ba/F3 cells, Fab supernatant. The source holds these as a separate data set.
The target in assay [7] is T3, recombinant cynomolgus monkey TfR1 extracellular domain, His-tagged (cynomolgus monkey, UniProt Q5RDH6 87-760 (Pongo abelii entry)).
T3 construct: also called Cyno TfR1 ECD; cyno TfR1 ECD-His
In words: SPR, TfR1 ECD-His captured, Fab injected, 1:1 fit. A general note: In SPR one partner is held on a chip, and binding of the other changes the refractive index at the surface.

In assay [8] the target is T4, recombinant human TfR1 extracellular domain, His-tagged (human, UniProt P02786 89-760).
T4 construct: also called Human TfR1 ECD; human TfR1 ECD-His
In words: SPR, TfR1 ECD-His captured, Fab injected, 1:1 fit.

Changes are numbered by the printed parent chain. Names and notes keep the numbering of the source. Read-outs that look alike come from different tables or passages of the source. Where only a bound is given, the exact number is not on record here.

B1: TfRANTIBODY-B HC-H4C/LC-L2 (C90V) hIgG1Fab′(1C) (Fab, V domains shown)
VH: QSLVESGGGVVQPGRSLRLSCKASGFSFSNSYWICWVRQAPGKGLEWVGCINTDADSTNYASWARGRFTISKTSSTTVYLQMNSLRAEDTAVYYCARQNNVFDPGYNLWGPGTLVTVSS
VL: ELVLTQSPSTLSASVGDRVTITCRASQNIGSNLAWYQQKPGKAPKLLIYDASKLESGVPSRFSGSGSGTEFTLTISSLQPDDFATYYCQVTVRGGAYGNAFGGGTKVEIKR
notes: also called ANTIBODY-B H4C/L2(C90V); H4C (C90V)/L2
What is called EC50 is the concentration needed to bring the measured effect to its halfway point. As to B1, the EC50 came out at 2.2 nM in assay [1] and 4.9 nM in assay [2].

B2: TfRANTIBODY-B HC-H3C/LC-L2 (C90S) hIgG1Fab′(1C) (Fab, V domains shown)
VH: QSLVESGGGVVQPGRSLRLSCAASGFSFSNSYWICWVRQAPGKGLEWVGCINTDADSTNYASWARGRFTISKDNSKNTLYLQMNSLRAEDTAVYYCARQNNVFDPGYNLWGQGTLVTVSS
VL: B1 VL with V90S
notes: also called ANTIBODY-B H3C/L2(C90S)
Consider B2, for which the figures for the EC50 in assay [1] and in assay [2] were 6.2 nM and 16.8 nM, respectively.

B3: TfRANTIBODY-B HC-H1C/LC-L2 (C90V) hIgG1Fab′(1C) (Fab, V domains shown)
VH: B2 VH with S62D, W63S, A64V, R65K, L79V
VL: B1 VL
notes: also called ANTIBODY-B H1C/L2(C90V)
As for B3, the concentration giving a half-maximal response (EC50) in assay [1] was 2.9 nM; in assay [2], 10.7 nM.

B4: TfRANTIBODY-B HC-H3C/LC-L2 (C90T) hIgG1Fab′(1C) (Fab, V domains shown)
VH: B2 VH
VL: B1 VL with V90T
notes: also called ANTIBODY-B H3C/L2(C90T)
For B4, the EC50 in assay [1] was found to be 6.3 nM; in assay [2], 15.9 nM.

B5: TfRANTIBODY-B HC-H3C/LC-L2 (C90V) hIgG1Fab′(1C) (Fab, V domains shown)
VH: B2 VH
VL: B1 VL
notes: also called ANTIBODY-B H3C/L2(C90V)
For the molecule B5, the EC50 in assay [1] came to 3.2 nM; in assay [2], 7.7 nM.

B6: TfR1 ANTIBODY-A HC-H0 hIgG1 Fab′(1C)/LC-L0 hKappa (Fab, V domains shown)
VH: EVQLVESGGGLVQPGGSLRLSCAASGIDFSSSGYMAWVRQAPGKGLEWVGAIYTYSSNTYYAASVKGRFTISRDDSKNSLYLQMNSLKTEDTAVYYCARGTYGYTGYTYTMGYFSLWGQGTLVTVSS
VL: DIQMTQSPSTLSASVGDRVTITCQASQNINSYLAWYQQKPGKAPKLLIYRASSLESGVPSRFSGSGSGTEFTLTISSLQPDDFATYYCQSYYYSGSSNYNAFGGGTKVEIKR
notes: also called ANTIBODY-A H0/L0
For the molecule B6, the figures for the concentration for a half-maximal effect (EC50) in assay [3] and in assay [4] were over 85 nM and 18 nM, respectively.

B7: TfR1 ANTIBODY-A HC-H0 hIgG1 Fab′(1C)/LC-L1 hKappa (Fab, V domains shown)
VH: B6 VH
VL: B6 VL with S53T, E55A
notes: also called ANTIBODY-A H0/L1
In the case of B7, the EC50 in assay [3] was over 107 nM; in assay [4], about 19 nM.

B8: TfR1 ANTIBODY-A HC-H1 hIgG1 Fab′(1C)/LC-L1 hKappa (Fab, V domains shown)
VH: QSLVESGGGLVQPGGSLRLSCAASGIDFSSSGYMAWVRQAPGKGLEWVGAIYTYSSNTYYAASVKGRFTISRDDSKNSLYLQMNSLKTEDTAVYYCARGTYGYTGYTYTMGYFSLWGQGTLVTVSS
VL: B6 VL with S53T, E55A
notes: also called ANTIBODY-A H1/L1
As to B8, the EC50 in assay [3] was over 162 nM; in assay [4] it was about 30 nM.

B9: TfR1 ANTIBODY-A HC-H1C hIgG1 Fab′(1C)/LC-L1 hKappa (Fab, V domains shown)
VH: B8 VH with A35C, A50C
VL: B6 VL with S53T, E55A
notes: also called ANTIBODY-A H1C/L1
As for B9, the EC50 in assay [3] is about 26 nM; in assay [4], 3.6 nM.

B10: TfRANTIBODY-A HC-H3(SY) hIgG1Fab′(1C)/LC-L0 hKappa (Fab, V domains shown)
VH: QSLVESGGGLVQPGGSLRLSCKASGIDFSSSGYMSWVRQAPGKGLEWVGYIYTYSSNTYYASWAKGRFTISKDSKNSVYLQMNSLKTEDTAVYYCARGTYGYTGYTYTMGYFSLWGPGTLVTVSS
VL: B6 VL
notes: also called ANTIBODY-A H3(SY)/L0
B10: the binding result in assay [5] was “no binding”. Besides, the EC50 in assay [6] is over 125 nM.

B11: TfR1 ANTIBODY-A HC-H1 hIgG1 Fab′(1C)/LC-L0 hKappa (Fab, V domains shown)
VH: B8 VH
VL: B6 VL
notes: also called ANTIBODY-A H1/L0
On to B11, for which the EC50 in assay [3] was over 176 nM; in assay [4], 25 nM.

B12: TfR1 ANTIBODY-A HC-H2 hIgG1 Fab′(1C)/LC-L1 hKappa (Fab, V domains shown)
VH: QSLVESGGGLVQPGGSLRLSCAASGIDFSSSGYMAWVRQAPGKGLEWVGAIYTYSSNTYYAASVKGRFTISKTSSTTVYLQMNSLKTEDTAVYYCARGTYGYTGYTYTMGYFSLWGQGTLVTVSS
VL: B6 VL with S53T, E55A
notes: heavy chain derived; also called ANTIBODY-A H2/L1
Turning to B12, the EC50 in assay [3] is over 36 nM; in assay [4], 4.4 nM.

B13: TfRANTIBODY-A HC-H3(SR) hIgG1Fab′(1C)/LC-L0 hKappa (Fab, V domains shown)
VH: B10 VH with Y50R
VL: B6 VL
notes: also called ANTIBODY-A H3(SR)/L0
Take B13: in assay [5], the binding result was “no binding”. In addition, the EC50 in assay [6] was over 290 nM.

B14: TfR1 ANTIBODY-A HC-H4C hIgG1 Fab′(1C)/LC-L2 hKappa (Fab, V domains shown)
VH: B10 VH with S35C, Y50C, D73T, K75S, N76T, S77T
VL: B6 VL with D1E, I2L, Q3D, S53T, E55A
notes: also called ANTIBODY-A H4C/L2
In general, Kd refers to the free concentration of one partner at which half of the binding sites on the other are occupied at equilibrium, for simple one-to-one binding. The term koff denotes the rate constant with which the complex falls apart. Usually kon stands for the rate constant with which the complex forms. For B14, in assay [7], the dissociation constant Kd worked out at 6.2 nM, the koff stood at 0.0134 s⁻¹ and the kon came to 2.16e+06 M⁻¹ s⁻¹. For the same molecule, in assay [8], the equilibrium dissociation constant (Kd) was found to be 1.6 nM, the koff is 0.00148 s⁻¹ and the kon is 931000 M⁻¹ s⁻¹. For the same molecule, in assay [3], the EC50 was 3.3 nM. This molecule displayed an EC50 in assay [4] of 1.6 nM.

B15: TfR1 ANTIBODY-A HC-H1C hIgG1 Fab′(1C)/LC-L2 hKappa (Fab, V domains shown)
VH: B8 VH with A35C, A50C
VL: B6 VL with D1E, I2L, Q3D, S53T, E55A
notes: also called ANTIBODY-A H1C/L2
For B15, the EC50 was about 39 nM in assay [3] and 3.6 nM in assay [4].

B16: TfR1 ANTIBODY-A HC-H0 hIgG1 Fab′(1C)/LC-L2 hKappa (Fab, V domains shown)
VH: B6 VH
VL: B6 VL with D1E, I2L, Q3D, S53T, E55A
notes: also called ANTIBODY-A H0/L2
In assay [4], B16 had a concentration for a half-maximal effect (EC50) of over 70 nM.

B17: TfR1 ANTIBODY-A HC-H2 hIgG1 Fab′(1C)/LC-L2 hKappa (Fab, V domains shown)
VH: B12 VH
VL: B6 VL with D1E, I2L, Q3D, S53T, E55A
notes: heavy chain derived; also called ANTIBODY-A H2/L2
For the molecule B17, the concentration for a half-maximal effect (EC50) in assay [3] was over 52 nM; in assay [4], 6.5 nM.

B18: TfR1 ANTIBODY-A HC-H1 hIgG1 Fab′(1C)/LC-L2 hKappa (Fab, V domains shown)
VH: B8 VH
VL: B6 VL with D1E, I2L, Q3D, S53T, E55A
notes: also called ANTIBODY-A H1/L2
Molecule B18 gave an EC50 in assay [4] of over 74 nM.

B19: TfR1 ANTIBODY-A HC-H3C hIgG1 Fab′(1C)/LC-L2 hKappa (Fab, V domains shown)
VH: B10 VH with S35C, Y50C
VL: B6 VL with D1E, I2L, Q3D, S53T, E55A
notes: also called ANTIBODY-A H3C/L2
For B19, in assay [7], the Kd stood at 8.3 nM, the koff amounted to 0.0178 s⁻¹ and the kon worked out at 2.16e+06 M⁻¹ s⁻¹. For the same molecule, in assay [8], the Kd amounted to 2.4 nM, the koff was found to be 0.00215 s⁻¹ and the association rate constant (kon) worked out at 886000 M⁻¹ s⁻¹. For the same molecule, the EC50 in assay [3] worked out at 10.4 nM. In assay [4], this molecule came in with an EC50 of 1.6 nM.

B20: TfR1 ANTIBODY-A HC-H0C hIgG1 Fab′(1C)/LC-L2 hKappa (Fab, V domains shown)
VH: B6 VH with A36C, A51C
VL: B6 VL with D1E, I2L, Q3D, S53T, E55A
notes: also called ANTIBODY-A H0C/L2
B20 displayed an EC50 in assay [4] of 3.6 nM.

B21: TfR1 ANTIBODY-A HC-H1C hIgG1 Fab′(1C)/LC-L0 hKappa (Fab, V domains shown)
VH: B8 VH with A35C, A50C
VL: B6 VL
notes: also called ANTIBODY-A H1C/L0
Consider B21, for which the EC50 in assay [3] was 15.5 nM; in assay [4], 2.5 nM.

B22: TfRANTIBODY-A HC-H3(HA) hIgG1Fab′(1C)/LC-L0 hKappa (Fab, V domains shown)
VH: B10 VH with S35H, Y50A
VL: B6 VL
notes: also called ANTIBODY-A H3(HA)/L0; H3C(HA)/L0
Consider B22, for which the EC50 in assay [5] was about 30 nM; in assay [6], 16.8 nM.

B23: TfR1 ANTIBODY-A HC-H2C hIgG1 Fab′(1C)/LC-L2 hKappa (Fab, V domains shown)
VH: B12 VH with A35C, A50C
VL: B6 VL with D1E, I2L, Q3D, S53T, E55A
notes: also called ANTIBODY-A H2C/L2
With B23, in assay [7], the Kd was determined as 7.8 nM, the koff was 0.0137 s⁻¹ and the kon was 1.76e+06 M⁻¹ s⁻¹. Moreover, in assay [8], the Kd is 2.2 nM, the koff was found to be 0.00213 s⁻¹ and the kon came to 952000 M⁻¹ s⁻¹. Also, a half-maximal response in assay [3] (EC50) required 7.4 nM. Further, in assay [4], the midpoint of the response, the EC50, lay at 2.8 nM.

B24: TfRANTIBODY-A HC-H3(SV) hIgG1Fab′(1C)/LC-L0 hKappa (Fab, V domains shown)
VH: B10 VH with Y50V
VL: B6 VL
notes: also called ANTIBODY-A H3(SV)/L0
Take B24: the binding result in assay [5] is “no binding”. In assay [6], this molecule registered an EC50 of over 150 nM.

The record behind these values is patent US20240158494A1 (Biogen, published 2024).
